In publication PMC11357854:

Key:
[1] = target: PDK1 catalytic domain, 50-359 (UniProt O15530); test: AlphaScreen GST-PRK2 / His-PDK1; conditions: reference: wild type; sites T958
PDK1 1-556 = PDK1 1-556 (UniProt O15530); test: AlphaScreen GST-PRK2 / His-PDK1; conditions: reference: wild type; sites T958

PRK2 (PKN2) catalytic domain, 643-984 (from UniProt Q16513) T958A
binding against the reference [1]: stronger

PRK2 (PKN2) 1-984 (from UniProt Q16513) T958A
binding against the reference [1]: stronger | binding against the reference (PDK1 1-556): stronger
